Data as given in patent US20020115592A1, “Pharmaceutical compositions containing insulin” (Provalis UK Limited, priority 1998, published 2002).

Assays:
[1] = Dissolution of insulin (optionally with aprotinin) in non-aqueous hydrophilic solvent/cosolvent; type: physicochemical; conditions: Insulin 7 mg
[2] = Appearance on addition of Akoline to the insulin solution; type: physicochemical; conditions: Insulin 7 mg
[3] = Gly (20 μl), PEG/L-lactic (20 μl/10 mg)
[4] = Gly (20 μl), PEG/NaAc (20 μl/10 mg)
[5] = Gly (40 μl), Acetic acid (10 mg)
[6] = Gly (40 μl), L-lactic acid (10 mg)
[7] = PD (40 μl), Na-L lactate (10 mg)
[8] = PEG (25 μl), DL-lactic acid (25 μl)
[9] = PEG (50 μl), Glycerol/TEA (50 μl/10 gl)
[10] = PG (40 μl), Acetic acid (10 mg)
[11] = PG (40 μl), Caproic acid (10 mg)
[12] = PG (40 μl), Citric acid (10 mg)

Insulin
Soluble? [1, 3]: Yes | Soluble? [1, 4]: Yes | Soluble? [1, 5]: Yes | Soluble? [1, 6]: Yes | Soluble? ([1]; Gly (40 μl), NaAc (10 mg)): Yes | Soluble? ([1]; PD (20 μl), benz. SO3H (10 mg)): Yes | Soluble? ([1]; PD (40 μl), L-lactic (10 mg)): Yes | Soluble? [1, 7]: Yes | Soluble? ([1]; PD (40 μl), NaAc (10 mg)): Yes | Soluble? ([1]; PEG (20 μl), L-lactic (10 mg)): Yes | Soluble? ([1]; PEG (20 μl), NaAc (10 mg)): Yes | Soluble? [1, 8]: Yes | Soluble? ([1]; PEG (25 μl), DL-lactic acid (25 μl), listed as with Akoline/POE): Yes | Soluble? ([1]; PEG (40 μl), camitine (10 mg)): Yes | Soluble? [1, 9]: Yes | Soluble? [1, 10]: Yes | Soluble? [1, 11]: Yes | Soluble? [1, 12]: Yes | Addition of Akoline [2, 3]: Turbid | Addition of Akoline [2, 4]: Clear | Addition of Akoline [2, 5]: Opaque | Addition of Akoline [2, 6]: Turbid | Addition of Akoline ([2]; Gly (40 μl), NaAc (10 mg)): Translucent | Addition of Akoline ([2]; PD (20 μl), benz. SO3H (10 mg)): Clear | Addition of Akoline ([2]; PD (40 μl), L-lactic (10 mg)): Turbid | Addition of Akoline [2, 7]: Clear | Addition of Akoline ([2]; PD (40 μl), NaAc (10 mg)): Clear | Addition of Akoline ([2]; PEG (20 μl), L-lactic (10 mg)): Translucent | Addition of Akoline ([2]; PEG (20 μl), NaAc (10 mg)): Clear | Addition of Akoline [2, 8]: Cloudy | Addition of Akoline ([2]; PEG (25 μl), DL-lactic acid (25 μl), (Akoline/POE)): Suspension | Addition of Akoline ([2]; PEG (40 μl), camitine (10 mg)): Clear solution | Addition of Akoline [2, 9]: Suspension | Addition of Akoline [2, 10]: Translucent | Addition of Akoline [2, 11]: Translucent | Addition of Akoline [2, 12]: Translucent
